The results in this text go back to the nanobody polyreactivity screen of Harvey et al. (2022).

The data set can be described thus: yeast display, Sf9 membrane polyspecificity reagent, FACS + sequencing; frameworks hold sequencing errors. In a few lines:
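Nanobodies came from a synthetic yeast display library in Saccharomyces cerevisiae BJ5465, induced with galactose for 36–48 hours and stained for 1 hour at 4 °C with 10% biotinylated, detergent-solubilized Sf9 membrane reagent. Cells were enriched on streptavidin microbeads and then FACS-sorted, with low and high (top ~1%) gates set on anti-HA fluorescence for expression and streptavidin fluorescence for reagent binding. Each polyreactivity label reflects the gate a clone came from. Genes were amplified by colony PCR, sequenced by MiSeq 2 × 250 and filtered by CDR length.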
“QVQLVESGGGLVQAGGSLRLSCAASGLTFNVNAMGWYRQAPGKERELVARINTSGGSTSYADSVKGRFTISRDNAKNTVYLQMNSLKPEDTAVYYCAADRARYYSEYDYWGQGTQVTVSS”: the “polyreactivity (PSR sort gate)” value is “low polyreactivity”. The value for “QVQLVESGGGLVQAGGSLRLSCAASGLTFNVYAMGWYRQAPGKERELVASITKRGGSTYYADSVKGRFTISRDNAKNTVYLQMNSLKPEDTAVYYCAADGLTGSKYRATGYYWGQGTQVTVSS” was “high polyreactivity”; that for “QVQLVESGGGLVQAGGSLRLSCAASGLTFPRNTMGWYRQAPGKERELVAVISSSGGITYYADSVKGRFTISRDNAKNTVYLQMNSLKPEDTAVYYCAARTRVPRMGYWGQGTQVTVSS” was “high polyreactivity”. As to “QVQLVESGGGLVQAGGSLRLSCAASGLTFPSNAMGWYRQAPGKERELVAAITSVGITYYADSVKGRFTISRDNAKNTVYLQMNSLKPEDTAVYYCNAPPGGGWYARDDNWGQGTQVTVSS”, the “polyreactivity (PSR sort gate)” value was “low polyreactivity”. As for “QVQLVESGGGLVQAGGSLRLSCAASGLTFPWYAMGWYRQAPGKERELVASINSSTGSTYYADSVKGRFTISRDNAKNTVYLQMNSLKPEDTAVYYCAAVEYGNMDWGQGTQVTVSS”, the “polyreactivity (PSR sort gate)” value is on record as “low polyreactivity”. The value for “QVQLVESGGGLVQAGGSLRLSCAASGLTFPYYAMGWYRQAPGKERELVAAISNSGGSTYYADSVKGRFTISRDNAKNTVYLQMNIVKPEDTAVYYCAAYNSYSDYGYWGHGTQVTVSS” was “high polyreactivity”. The value for “QVQLVESGGGLVQAGGSLRLSCAASGLTFPYYVMGWYRQAPGKERELVAAISSSGGSTYYADSVKGRFTISRDNAKNTVYLQMNSLKPEDTAVYYCNALGHFSKIATYDYWGQGTQVTVSS” was “low polyreactivity”. “QVQLVESGGGLVQAGGSLRLSCAASGLTFQWNAMGWYRQAPGKERELVAGITDIGDSTYYADSVKGRFTISRDNAKNTVYFQMNSLKPEDTAVYYCNATSGYKHAWRSENGYWGQGTQVTVSS”: the “polyreactivity (PSR sort gate)” value is on record as “low polyreactivity”. For “QVQLVESGGGLVQAGGSLRLSCAASGLTFQYYTMGWYRQAPGKERELVAAINWSGGSTYYADSVKGRFTISRDNAKNTVYLQMNSLKPVDTAVYYCNAVRFVEHDYWGQGTQVTVSS” the value was “high polyreactivity”.

As for “QVQLVESGGGLVQAGGSLRLSCAASGLTFRINTMGWYRQAPGKERELVASISKSGSSTYYADSVKGRFTISRDNAKNTVYLQMNSLKPEDTAVYYCAARTRTLYVTYYSWGQGTQVTVSS”, the “polyreactivity (PSR sort gate)” value is recorded as “high polyreactivity”.

As to “QVQLVESGGGLVQAGGSLRLSCAASGLTFRKYAMGWYRQAPGKERELVAAITGSGGRTYYADSVKGRFTISRDNAKNTVYLQMNSLKPEDTAVYYCAADDYFHDDYCGQGTQVTVSS”, the “polyreactivity (PSR sort gate)” value was “high polyreactivity”. For “QVQLVESGGGLVQAGGSLRLSCAASGLTFRKYAMGWYRQAPGKERELVATISRNGGSTYFADSVKGRFTISRDNAKNTVYLQMNSLKPEDTAVYYCAADYYTYDYAGYGYWGQGTQVTVSS” the value was “high polyreactivity”; for “QVQLVESGGGLVQAGGSLRLSCAASGLTFRRYAMGWYRQAPGKERELVAAISSSGGNTYYADSVKGRFTISRDNAKNTVYLQMNSLQPEDTAVYYCATRYKSPSFDYWGQGTQVTVSS”, “high polyreactivity”. On to “QVQLVESGGGLVQAGGSLRLSCAASGLTFRSYTMGWYRQAPGKERELVAAISSGGSTYYADSVKGRFTISRDNAKHTVYLKMNSRKPEDTAVYYCAAPRGHGKYYSWGQGTQVNVSS”, for which the “polyreactivity (PSR sort gate)” value is on record as “high polyreactivity”. For “QVQLVESGGGLVQAGGSLRLSCAASGLTFRSYTMGWYRQAPGTERELVAAISSGGSTYYADSVKGRFTISRDNAKNTVYLQMNSLKPEDTAVYYCAAPRGHGKYYSWGQGTQVTVSS” the value was “high polyreactivity”; for “QVQLVESGGGLVQAGGSLRLSCAASGLTFRTYAMGWYRQAPGKERELVAAITWSGDSTYADSVKGRFTISRDNAKNTVYLQMNSLKPEDTAVYYCATKGYFSYHPYDYWGQGTQVTVSS”, “low polyreactivity”.
